Columns and labels:
NKG2A-CD94-ECD-hFc = target: T1, NKG2A-CD94-ECD-hFc (human, UniProt P26715 94-233; Q13241 32-179, limits assumed); assay: ELISA on coated NKG2A-CD94-ECD-hFc (FIG. 43C)
T1 construct: extracellular domain; Lot 20200724002, 'provided by CP'; the two-chain layout here is only the reading of the name; also called human NKG2A (recombinant); NKG2A antigen; not shown: human Fc (hFc)
Description: (§1) Methods: ELISA binding of Tribody/ProTribody antibody constructs to antigens: Dilute target protein (hCD3epsilon-His (cat # 10977-H08S, supplier Sino Biological); h5T4-His (cat# 19845-H08H, supplier Sino Biological); NKG2A-CD94-ECD-hFc, Lot:20200724002, provided by CP; or NKG2D-ECD-hFc, Lot: 20200413002, provided by CP) into PBS with final concentration of 0.01 µg/mL for hCD3epsilon-His, 0.3 µg/mL for h5T4-His, 1 µg/mL for NKG2A-CD94-ECD-hFc and 0.7 µg/mL for hNKG2D-ECD-hFc respectively and coat 100 µL/well on ELISA plate (cat: 9018, supplier Corning) respectively. Incubate O/N, 4° C. The plates were blocked with 250 µL 1% BSA in PBST for 1 hr at 37° C.Wash 4 times with PBST. All the washes are done using Biotek (Elx 405). All the Tribody set antibodies were diluted to 400 nM and make 4-fold serially dilutions (12 points, including 0 point). Add 100 µL/well diluted antibody constructs solution to plate, incubate for 1 hr at 37° C.Wash 4 times with PBST. Add 100 µL/well anti-human kappa light chain-HRP (1:10000), incubate for 0.5 hr at 37° C. Wash 4 times with PBST. 100 µL/well of TMB substrate was added and incubated at room temperature for 5 min. 100 µL/well of 1N HCl to terminate reaction. Plates were read using ELISA plate reader at 450 nm wavelength (instrunet SpectraMax M5e). Data Analysis was performed using Graphpad prism 5 software by using nonlinear regression (curve fit): log (agonist) vs. response, agonist is antibody concentration (nM) and response is OD value.

[1] = target: T2, hCD3epsilon-His (recombinant human CD3 epsilon) (human, UniProt P07766 23-126); assay: ELISA on coated hCD3epsilon-His (FIG. 43A)
T2 construct: Bought protein; also called recombinant hCD3ε protein; human CD3ε
Description: as §1, with “Data Analysis was performed using Graphpad prism 5 software by using nonlinear regression (curve fit): log (agonist) vs. response, agonist is antibody concentration (nM) and response is OD value.” left out

[2] = target: T3, 5T4 on cells (NCI-H226 endogenous; CHO over-expressing 5T4) (UniProt Q13641 32-420, limits assumed); assay: FACS on NCI-H226 cells, endogenous 5T4 (FIG. 45B)
T3 construct: whole, on cells
T3 sequence (looked up): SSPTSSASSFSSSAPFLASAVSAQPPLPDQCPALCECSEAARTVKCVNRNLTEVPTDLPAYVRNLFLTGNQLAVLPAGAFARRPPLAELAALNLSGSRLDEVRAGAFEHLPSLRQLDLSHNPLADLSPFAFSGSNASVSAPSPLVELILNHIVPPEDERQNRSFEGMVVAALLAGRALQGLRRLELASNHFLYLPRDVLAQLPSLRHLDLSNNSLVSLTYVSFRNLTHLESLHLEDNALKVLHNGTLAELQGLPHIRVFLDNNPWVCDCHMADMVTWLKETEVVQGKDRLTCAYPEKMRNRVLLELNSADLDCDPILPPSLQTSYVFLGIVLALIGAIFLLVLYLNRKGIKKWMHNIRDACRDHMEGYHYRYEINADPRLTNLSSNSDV
Description: (§2) Suspension cultured cells was harvested directly, and adherent cell were digested using TrypLE Express Enzyme (cat: 12604-013, supplier Life technologies). Centrifuge at 1000 rpm for 5 min and discard the supernatant. Cells are suspended at a concentration of 2×10⁶/mL in FACS buffer (2% FBS in PBS) and add 100 µL/well of cell suspension to the plate (cat #3799, supplier Corning). Centrifuging the plates at 2000 rpm for 5 min and discard the supernatant. Re-suspend the cells in 100 µL/well of Tribody set antibodies (400 nM start, 4-fold dilution, 8 point including 0 point) and incubate the plate for 60 min at 4° C. Centrifuge the plate at 2000 rpm, 4° C. for 5 min and discard supernatant. Then wash the cells 3 times with 170 µL FACS buffer. Re-suspend the cells at 100 µL/well with secondary antibody (goat anti-human Ig Fab-FITC, Cat # 2085-02, Southern biotech) with 1:400 dilution and incubate the plate for 30 min at 4° C. in dark. Centrifuge the plate at 2000 rpm, 4° C. for 5 min and discard supernatant. […] The fluorescence intensity of the staining was measured using flow cytometer (BD, FACSVerse). The geometric mean fluorescence intensity (GMFI; median fluorescence intensity (MFI)) of set antibodies staining was calculated (BD FACSuite software). Dose-response curves were generated and EC50s for thetrispecific variants binding were calculated using GraphPad Prism software.

[3] = target: T4, NKG2A on NK92 cells (endogenous) (UniProt P26715 1-233, limits assumed); assay: FACS on NK92 cells, endogenous NKG2A (FIG. 45C)
T4 construct: whole, on cells
Description: as §2

[4] = target: T5, human CD3 epsilon on cells (Jurkat T cells, endogenous) (human, UniProt P07766 23-207); assay: FACS on Jurkat T cells, endogenous hCD3ε (FIG. 45A)
T5 construct: whole, on cells; On cells CD3 epsilon stands in the TCR/CD3 complex; only the epsilon chain is named as target; also called hCD3ε on Jurkat; CD3ε expressing cells
Description: as §2, with “buffer.” for “buffer. Re-suspend the cells at 100 µL/well with secondary antibody (goat anti-human Ig Fab-FITC, Cat # 2085-02, Southern biotech) with 1:400 dilution and incubate the plate for 30 min at 4° C. in dark. Centrifuge the plate at 2000 rpm, 4° C. for 5 min and discard supernatant.”
Results: The expressed trispecific constructs were analyzed for their binding to cells expressing endogenous CD3ε, 5T4 and NKG2A/NKG2D.

[5] = target: T6, NKG2A/CD94 on CHO cells (CHOK1-NKG2A-CD94) (human, UniProt P26715 1-233; Q13241 1-179, limits assumed); assay: FACS on CHO cells over-expressing ectopic NKG2A (NKG2A/CD94 by the legend) (FIG. 45E)
T6 construct: whole, on cells; also called CHO cells over-expressing NKG2A/CD94; CHO cell line over expressing ectopic NKG2A
Description: as §2

T4 sequence (P26715 whole entry): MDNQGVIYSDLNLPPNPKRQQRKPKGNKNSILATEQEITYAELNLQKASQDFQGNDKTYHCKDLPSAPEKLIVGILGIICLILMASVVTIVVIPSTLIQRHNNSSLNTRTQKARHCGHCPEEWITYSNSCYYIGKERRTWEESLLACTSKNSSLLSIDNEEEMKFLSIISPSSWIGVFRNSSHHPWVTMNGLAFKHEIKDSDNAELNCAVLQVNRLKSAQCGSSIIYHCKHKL
T6 sequence (P26715 whole entry, chain 1 of 2): as the sequence (P26715 whole entry) above
T6 sequence (Q13241 whole entry, chain 2 of 2): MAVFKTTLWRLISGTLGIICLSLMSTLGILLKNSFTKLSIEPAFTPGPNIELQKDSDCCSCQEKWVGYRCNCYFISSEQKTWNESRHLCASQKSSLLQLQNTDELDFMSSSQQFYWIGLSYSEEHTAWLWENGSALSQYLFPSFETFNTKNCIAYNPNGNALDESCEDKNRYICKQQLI
T1 sequence (P26715 94-233 limits assumed, chain 1 of 2): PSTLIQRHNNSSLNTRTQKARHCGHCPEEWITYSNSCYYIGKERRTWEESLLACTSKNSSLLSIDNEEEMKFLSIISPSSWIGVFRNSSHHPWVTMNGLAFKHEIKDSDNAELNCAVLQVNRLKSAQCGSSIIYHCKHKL
T1 sequence (Q13241 32-179 limits assumed, chain 2 of 2): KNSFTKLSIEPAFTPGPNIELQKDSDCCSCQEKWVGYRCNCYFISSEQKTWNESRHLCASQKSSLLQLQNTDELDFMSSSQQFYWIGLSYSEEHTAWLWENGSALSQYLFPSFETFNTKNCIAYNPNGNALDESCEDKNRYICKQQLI
T2 sequence (P07766 23-126 limits assumed): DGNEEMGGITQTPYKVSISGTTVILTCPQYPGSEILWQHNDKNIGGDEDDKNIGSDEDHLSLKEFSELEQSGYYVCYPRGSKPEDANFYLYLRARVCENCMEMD
T5 sequence (P07766 23-207): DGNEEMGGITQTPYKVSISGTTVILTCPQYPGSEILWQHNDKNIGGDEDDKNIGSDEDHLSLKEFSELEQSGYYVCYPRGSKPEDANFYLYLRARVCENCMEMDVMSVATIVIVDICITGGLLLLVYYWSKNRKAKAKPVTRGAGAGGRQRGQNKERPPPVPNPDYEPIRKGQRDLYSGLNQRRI

B1: IM-1062 Tribody (other)
heavy: GGSGGSEVQLVESGGGLVQPGGSLRLSCAASGFTFNTYAMNWVRQAPGKGLEWVARIRSKYNNYATYYADSVKDRFTISRDDSKNTLYLQMNSLRAEDTAVYYCVRHGNFGNSYVSWFAYWGQGTMVTVSSASTKGPSVFPLAPSSKSTSGGTAALGCLVKDYFPEPVTVSWNSGALTSGVHTFPAVLQSSGLYSLSSVVTVPSSSLGTQTYICNVNHKPSNTKVDKRVEPKSCPPCGGGGSDIQMTQSPSSLSASVGDRVTITCRASENIYSYLAWYQQKPGKAPKLLIYNAKTLAEGVPSRFSGSGSGTDFTLTISSLQPEDFATYYCQHHYGTPRTFGGGTKVEIKGGGGSGGGGSGGGGSGGGGSQVQLVQSGAEVKKPGASVKVSCKASGYTFTSYWMNWVRQAPGQGLEWMGRIDPYDSETHYAQKLQGRVTMTTDTSTSTAYMELRSLRSDDTAVYYCARGGYDFDVGTLYWFFDVWGQGTTVTVSS
light: GGSGGSQAVVTQEPSLTVSPGGTVTLTCRSSTGAVTTSNYANWVQQKPGQAPRGLIGGTNKRAPGTPARFSGSLLGGKAALTLSGVQPEDEAEYYCALWYSNLWVFGGGTKLTVLGQPKAAPSVTLFPPSSEELQANKATLVCLISDFYPGAVTVAWKADSSPVKAGVETTTPSKQSNNKYAASSYLSLTPEQWKSHRSYSCQVTHEGSTVEKTVAPTECPPCSGGGSDIQMTQSPSSLSASVGDRVTITCRASQGISNYLAWFQQKPGKAPKSLIYRANRLQSGVPSRFSGSGSGTDFTLTISSLQPEDVATYYCLQYDDFPWTFGQGTKLEIKGGGGSGGGGSGGGGSGGGGSQVQLVQSGAEVKKPGASVKVSCKASGYTFTSFWMHWVRQAPGQGLEWMGRIDPNRGGTEYNEKAKSRVTMTADKSTSTAYMELSSLRSEDTAVYYCAGGNPYYPMDYWGQGTTVTVSS
notes: Tri-specific antibody (Tribody): anti-CD3 epsilon Fab with an anti-5T4 scFv and an anti-NKG2A scFv, no regulatory domain; also called the Tribody format
B1 was tested, and the EC50 (NKG2A-CD94-ECD-hFc) was 4.4 nM, the EC50 [1] was 1.69 nM and the EC50 [2] was 1.78 nM. For the same binder, the EC50 [3] was 6.5 nM, the EC50 [4] was 1.1 nM and the EC50 [5] was 29 nM.

Reference: patent US20230312753A1 (IMMUNORIZON, published 2023)
